The source of these data is article PMC6028098, “The N-terminal region of photocleavable peptides that bind HLA-DR1 determines the kinetics of fragment release” (PLoS ONE, 2018).

The assay has as its target HLA-DR1 (DRA*01:01/DRB1*01:01) extracellular domain (human). Description: fluorescence polarisation. A general note: In fluorescence polarisation assays a small probe gives low polarisation when free and higher when bound to something large.
As usually defined, the IC50 is the concentration needed to halve the response being measured. As to “Ac-photoHA photocleavable peptide (Ac-PRYVKxNTLRLAT)”, the IC50 came out at 134 nM.
The same measure for “Ac-photoHAΔ1–2 photocleavable peptide (Ac-YVKxNTLRLAT)”: 227 nM.
On to “HA peptide (unlabeled, non-photocleavable), HA306-318-derived”, for which the IC50 was determined as 40 nM.
The substance “photoHA photocleavable peptide (PRYVKxNTLRLAT)” yielded an IC50 of 92 nM.
Regarding “photoHAΔ1–2 photocleavable peptide (YVKxNTLRLAT)”, the concentration for half-maximal inhibition (IC50) was determined as 1040 nM.
